The text below walks through data of US5981483, “Compositions comprising modulators of cytokines of the TGF-β superfamily” (Mount Sinai Hospital Corporation, dated 1999).

Bridges are numbered along the chain shown (N, C = ends). Where no end group is shown, it is not given here.

A word on the Kd: it is the equilibrium constant for the complex coming apart. Broadly, the koff is the rate constant with which the complex falls apart. In general, kon refers to a measure of how fast the partners come together.

The chains are these.
T1: adult human fetuin/α2-HS glycoprotein (human, UniProt P02765)
T1 sequence: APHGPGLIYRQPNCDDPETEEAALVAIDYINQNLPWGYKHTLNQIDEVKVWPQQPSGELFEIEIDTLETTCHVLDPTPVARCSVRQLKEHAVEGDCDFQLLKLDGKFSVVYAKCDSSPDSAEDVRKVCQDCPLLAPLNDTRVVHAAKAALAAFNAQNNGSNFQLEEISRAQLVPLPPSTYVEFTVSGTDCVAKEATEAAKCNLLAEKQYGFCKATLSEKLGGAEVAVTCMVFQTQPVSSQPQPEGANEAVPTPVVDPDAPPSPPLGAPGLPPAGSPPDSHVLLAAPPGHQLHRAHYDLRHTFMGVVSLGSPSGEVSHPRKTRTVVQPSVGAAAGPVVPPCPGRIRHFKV

B1: bovine fetuin (other)
chain: IPLDPVAGYKEPACDDPDTEQAALAAVDYINKHLPRGYKHTLNQIDSVKVWPRRPTGEVYDIEIDTLETTCHVLDPTPLANCSVRQQTQHAVEGDCDIHVLKQDGQFSVLFTKCDSSPDSAEDVRKLCPDCPLLAPLNDSRVVHAVEVALATFNAESNGSYLQLVEISRAQFVPLPVSVSVEFAVAATDCIAKEVVDPTKCNLLAEKQYGFCKGSVIQKALGGEDVRVTCTLFQTQPVIPQPQPDGAEAEAPSAVPDAAGPTPSAAGPPVASVVVGPSVVAVPLPLHRAHYDLRHTFSGVASVESSSGEAFHVGKTPIVGQPSIPGGPVRLCPGRIRYFKI
B2: reduced and alkylated TRH1b peptide from TβRII (peptide)
peptide: CVAVWRKNDENITLETVCHD
modifications: also: Cys reduced and alkylated, agent not given here, exact limits not given here
B3: recombinant human BMP-2 (ligand)
chain: QAKHKQRKRLKSSCKRHPLYVDFSDVGWNDWIVAPPGYHAFYCHGECPFPLADHLNSTNHAIVQTLVNSVNSKIPKACCVPTELSAISMLYLDENEKVVLKNYQDMVVEGCGCR
B4: cyclized TRH1b peptide from TβRII (peptide)
peptide: CVAVWRKNDENITLETVC
modifications: disulfide 1-18 (inferred); also: exact limits not given here, terminal residues may be removed

Assay [1] addresses B3. The assay is described as follows: SPR (BIAcore). On the technique in general: In SPR one partner is held on a chip, and binding of the other changes the refractive index at the surface.
Assay [2] deals with T2, purified human TGF-β1 (human, UniProt P01137). As to the kind of experiment: SPR (BIAcore); analyte over immobilized cytokine; repeated calculation. The procedure: (§1) Data was analyzed using the BIA-evaluation software (Pharmacia Biosensor). The association rate constant, $kass$, was calculated by first plotting the change in response with time versus response (i.e. dR/dT vs R). When the slope of the line from this graph is plotted versus analyte concentration (i.e d(dR/dT)/dR vs C), $kass$ is obtained from the slope of the line. The dissociation rate constant, $kdiss$, is obtained during the decrease in response with time after analyte injection is discontinued. Specifically, $kdiss$ was obtained from the slope of the line in a plot of $\ln(Rt1/Rtn)$ vs time. The affinity constants were calculated from K_D = kdiss/kass. Variance for $kass$ is standard error of the linear regression plot, and for $kdiss$ values are the mean ± range of 3 or more independent injections.
(§2) Binding constants for fetuins and TRH1 peptide interactions with TGF-β and BMPs measured using the BIAcore and BIA-evaluation software (Pharmacia Biosensor). The change in response with time was plotted for each analyte concentration (ie. dR/dT vs R), and the slope of these lines were then plotted as a function of analyte concentration (i.e d(dR/dT)/dR vs C), where the slope yields $kass$. The dissociation rate constant, $kdiss$, is obtained after analyte injection is discontinued as the slope of $\ln(Rtl/Rtn)$ vs time. K_Ds are $kdiss/kass$. Variance for $kass$ is standard error of the linear regression plot, and for $kdiss$ values are the mean ± range of 3 or more independent injections.

The target of assay [3] is T2, purified human TGF-β1. As to the kind of experiment: SPR (BIAcore); analyte over immobilized cytokine. On the procedure: (§3) In this system, a purified protein serving as the ligand is covalently coupled to a carboxymethylated dextran surface, and binding molecules (i.e. the analyte) are passed in a fluid phase across the surface. Binding of the analyte to ligand causes a change in reflected light which is directly proportional to mass bound, and is measured in arbitrary response units (R.U.). Analyte-ligand binding is observed as both increasing response with time during the injection of analyte, and the difference in the position of the baseline before and after injection.
as §1
(§4) Data was analyzed using the BIA-evaluation software (Pharmacia Biosensor). The association rate constant, $kass$, was calculated by first plotting the change in response with time versus response (ie. dR/dT vs R).

The target of another assay is bovine serum albumin (bovine, UniProt P02769). The assay is described as follows: SPR (BIAcore), BMP-2 immobilized. The procedure: as §3
In assay [4] the target is B1. As to the kind of experiment: SPR (BIAcore); analyte over immobilized cytokine; repeated calculation. On the procedure: as §1, §2
The target of assay [5] is T1, adult human fetuin/α2-HS glycoprotein. The assay is described as follows: SPR (BIAcore); analyte over immobilized cytokine. The procedure:
as §3, §2

Assay [6] concerns the target B1. As to the kind of experiment: SPR (BIAcore); analyte over immobilized cytokine. The procedure: as §3, §1, §4
For assay [7], the target named is B3. As to the kind of experiment: SPR (BIAcore); analyte over immobilized cytokine; repeated calculation. On the procedure:
as §1, §2

Assay [8] concerns the target B3. As to the kind of experiment: SPR (BIAcore); analyte over immobilized cytokine. The procedure:
as §3, §1, §4

In the case of B1, the “fold greater affinity than fetuin binding to TGF-β1” value in the assay with recombinant human BMP-2 [1] is around 100 times.

Regarding B2, the equilibrium dissociation constant (Kd) in the assay with purified human TGF-β1 [2] and with purified human TGF-β1 [3] was above 10000 nM in each case.

Regarding B3, in the assay with bovine serum albumin, the binding result is listed as “no binding (tested: 0.22, 0.29, 0.44, 0.59, 0.88 µM)”. In addition, the Kd was 27 nM with bovine fetuin [4], 51 nM in assay [5] and 36 nM with bovine fetuin [6].

For B4, the dissociation constant (Kd) with purified human TGF-β1 [2] is 1000 nM; with recombinant human BMP-2 [7], above 10000 nM; with purified human TGF-β1 [3], 520 nM; with recombinant human BMP-2 [8] it was above 10000 nM. The koff was 0.0023 s⁻¹ with purified human TGF-β1 [2] and 0.0019 s⁻¹ with purified human TGF-β1 [3]. Also, the values for the kon with purified human TGF-β1 [2] and with purified human TGF-β1 [3] were 2200 M⁻¹ s⁻¹ and 3700 M⁻¹ s⁻¹, respectively.
